The values that follow come from US20250313635A1, “ANTI-INTEGRIN ANTIBODIES AND USES THEREOF” (Merck Sharp & Dohme LLC, priority 2022, published 2025).

One experiment has as its target T1, mα5β1 (Mus musculus, UniProt P09055+P11688).
T1 construct: The full extracellular domains for all α and β integrin subunits; (GGGS)3 linker (C); acidic coiled-coil with cysteine (C); GG-Avitag (C); hexa-histidine tag (C); basic coiled-coil with cysteine (C); made in house; host or cells: Expi293 cells
Nature of the experiment: Mouse AlphaLISA integrin-ligand blocking assay (fibronectin). It is filed as biochemical. The settings on record: Table 12; read-out: IC50 Mouse integrin AlphaLISA assays mα5β1. As for the experimental part: (§1) Integrin AlphaLISA assay. In the AlphaLISA integrin assays, we used a HEPES based buffer (25 mM HEPES pH 7.4, 137 mM NaCl, 1 mM MgCl2, 1 mM MnCl2, 2 mM CaCl2, 2.7 mM KCl, and 0.05% Tween 20). Optimal assay conditions were determined with a titration of the reagents for signal noise ratio (S/N), linear range, etc. For the respective integrins, we used the final concentrations described in Table 9.
(§2) Briefly, the testing antibody (8 μL) was added as a 4×(of Final testing concentration) solution in the HEPES buffer described previously into a 384w AlphaPlate™ (Perkin Elmer #6005350). Then the integrin and ligand were added sequentially as 8×(4 μL each). Plates were sealed and incubated at room temperature for two hours. Then 4×acceptor bead solution ([…]) was added, and the plates were resealed and incubated at room temperature (RT) for one hour. Finally, 4×([…]) donor beads solution was added in a darkened room and incubated for 45 minutes at room temperature. Plates were read on the Envision (Perkin Elmer) in AlphaScreen™ mode within three hours of donor bead addition.
In general terms: Alpha assays give light when donor and acceptor beads are brought close together.

In experiment [1] the test system is Normal human lung fibroblasts. Nature of the experiment: αSMA imaging, TGFβ-induced αSMA expression. The class given is cell-based. How it is done:
(§3) αSMA imaging. Primary cells (passage 3-5) were grown on Cell carrier Ultra, collagen Type 1 coated 96-well plates (Perkin Elmer, #6055700) at a density of 25,000 cells/well. Once the cells adhere, they were starved in serum free media for 24 hours followed by addition of treatments, i.e., 5 ng/mL TGFβ (Biolegend #580702)±inhibitors. Cells were pre-treated with inhibitors for 30 minutes prior to the addition of TGFβ stimulation. 48 hours post treatment, the cells were fixed in 4% methanol free paraformaldehyde (ThermoFisher Scientific #28908) for 20 minutes at room temperature and incubated with anti-alpha smooth muscle Actin antibody (Abcam #ab7817) at 1:4000 overnight at 4° C. Following primary antibody incubation, cells were incubated with Goat anti-mouse secondary antibody (ThermoFisher Scientific #A32723) at 1:500 and Hoechst (ThermoFisher Scientific #62249) at 1:1000 for one hour at RT. The fixed and stained cells were images for immunofluorescence on Perkin Elmer's Opera Phenix high content Imager.

The target in another experiment is T2, mαvβ8 (Mus musculus, UniProt P43406+Q0VBD0).
T2 construct: The full extracellular domains for all α and β integrin subunits; (GGGS)3 linker (C); acidic coiled-coil with cysteine (C); GG-Avitag (C); hexa-histidine tag (C); basic coiled-coil with cysteine (C); made in house; host or cells: Expi293 cells
T2 sequence (P43406 31-988 limits assumed): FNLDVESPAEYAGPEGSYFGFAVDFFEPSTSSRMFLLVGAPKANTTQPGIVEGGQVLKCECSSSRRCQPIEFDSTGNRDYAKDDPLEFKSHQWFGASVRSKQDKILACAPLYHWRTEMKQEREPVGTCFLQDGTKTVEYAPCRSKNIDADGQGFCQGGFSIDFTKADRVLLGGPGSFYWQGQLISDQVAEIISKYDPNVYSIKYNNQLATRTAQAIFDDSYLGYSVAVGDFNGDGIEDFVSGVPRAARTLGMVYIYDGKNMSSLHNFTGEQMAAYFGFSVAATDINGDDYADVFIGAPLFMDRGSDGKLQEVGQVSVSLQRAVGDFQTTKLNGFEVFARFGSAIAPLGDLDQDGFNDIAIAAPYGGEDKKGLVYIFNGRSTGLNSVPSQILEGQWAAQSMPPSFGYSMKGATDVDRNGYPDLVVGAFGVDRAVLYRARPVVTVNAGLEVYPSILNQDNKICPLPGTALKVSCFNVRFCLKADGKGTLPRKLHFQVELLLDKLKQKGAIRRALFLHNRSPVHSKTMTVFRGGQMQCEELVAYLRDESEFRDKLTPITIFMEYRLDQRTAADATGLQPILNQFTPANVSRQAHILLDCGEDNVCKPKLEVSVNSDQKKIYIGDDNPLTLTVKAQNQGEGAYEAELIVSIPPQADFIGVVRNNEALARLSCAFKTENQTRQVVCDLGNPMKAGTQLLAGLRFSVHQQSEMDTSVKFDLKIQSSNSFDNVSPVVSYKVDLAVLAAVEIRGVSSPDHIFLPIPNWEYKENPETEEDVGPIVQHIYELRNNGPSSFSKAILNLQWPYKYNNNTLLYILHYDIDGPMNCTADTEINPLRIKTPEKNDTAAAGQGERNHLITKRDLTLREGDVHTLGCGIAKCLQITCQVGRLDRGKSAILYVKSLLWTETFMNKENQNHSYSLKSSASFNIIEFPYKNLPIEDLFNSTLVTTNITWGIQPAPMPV
T2 sequence (Q0VBD0 22-681 limits assumed): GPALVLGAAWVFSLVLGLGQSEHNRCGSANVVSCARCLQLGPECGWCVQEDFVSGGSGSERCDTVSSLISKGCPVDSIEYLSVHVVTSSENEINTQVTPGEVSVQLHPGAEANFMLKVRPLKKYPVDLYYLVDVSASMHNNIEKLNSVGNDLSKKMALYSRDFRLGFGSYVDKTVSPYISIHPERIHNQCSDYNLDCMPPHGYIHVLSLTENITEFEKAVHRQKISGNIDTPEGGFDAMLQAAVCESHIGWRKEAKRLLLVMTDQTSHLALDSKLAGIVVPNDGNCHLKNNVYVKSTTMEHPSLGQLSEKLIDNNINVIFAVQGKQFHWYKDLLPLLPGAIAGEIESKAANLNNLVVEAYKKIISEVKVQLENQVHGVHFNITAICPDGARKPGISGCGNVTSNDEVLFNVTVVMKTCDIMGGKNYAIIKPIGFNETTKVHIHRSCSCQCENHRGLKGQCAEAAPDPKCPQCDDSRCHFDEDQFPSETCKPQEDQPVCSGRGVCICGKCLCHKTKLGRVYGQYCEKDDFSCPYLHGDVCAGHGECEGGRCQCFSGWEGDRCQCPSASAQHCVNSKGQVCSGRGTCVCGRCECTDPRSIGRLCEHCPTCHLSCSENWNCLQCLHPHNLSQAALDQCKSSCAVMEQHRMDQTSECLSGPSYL
Nature of the experiment: Mouse AlphaLISA integrin-ligand blocking assay (LAP). Conditions: Table 12; read-out: IC50 Mouse integrin AlphaLISA assays mαvβ8. It is filed as biochemical. How it is done: as §1, §2

For the next experiment, the target named is T3, mαvβ5 (Mus musculus, UniProt O70309+P43406).
T3 construct: The full extracellular domains for all α and β integrin subunits; (GGGS)3 linker (C); acidic coiled-coil with cysteine (C); GG-Avitag (C); hexa-histidine tag (C); basic coiled-coil with cysteine (C); made in house; host or cells: Expi293 cells
T3 sequence (P43406 31-988 limits assumed): as the sequence (P43406 31-988 limits assumed) above
T3 sequence (O70309 24-719 limits assumed): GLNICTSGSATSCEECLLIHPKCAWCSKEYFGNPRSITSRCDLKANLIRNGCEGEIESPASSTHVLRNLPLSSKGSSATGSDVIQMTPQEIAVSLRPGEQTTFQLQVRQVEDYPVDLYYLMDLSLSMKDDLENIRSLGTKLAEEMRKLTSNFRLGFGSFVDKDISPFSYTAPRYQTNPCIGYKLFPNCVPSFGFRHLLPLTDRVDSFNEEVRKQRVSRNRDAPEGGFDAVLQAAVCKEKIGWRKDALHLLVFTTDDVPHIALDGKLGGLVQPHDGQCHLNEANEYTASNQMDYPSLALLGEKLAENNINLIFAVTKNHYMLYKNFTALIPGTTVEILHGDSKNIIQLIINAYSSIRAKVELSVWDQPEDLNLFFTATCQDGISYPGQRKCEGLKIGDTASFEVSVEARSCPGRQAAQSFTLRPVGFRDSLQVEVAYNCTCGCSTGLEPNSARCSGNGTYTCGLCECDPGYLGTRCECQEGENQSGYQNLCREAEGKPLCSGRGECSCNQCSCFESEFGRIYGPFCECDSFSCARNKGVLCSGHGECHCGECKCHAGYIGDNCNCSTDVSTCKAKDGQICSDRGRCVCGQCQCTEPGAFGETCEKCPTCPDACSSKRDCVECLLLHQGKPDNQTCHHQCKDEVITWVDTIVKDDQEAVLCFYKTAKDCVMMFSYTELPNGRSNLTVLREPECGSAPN
Description: Mouse AlphaLISA integrin-ligand blocking assay (vitronectin). It is filed as biochemical. The settings on record: Table 12; read-out: IC50 Mouse integrin AlphaLISA assays mαvβ5. How it is done: as §1, §2

Experiment [2] relates to IPF patient lung fibroblasts. Nature of the experiment: αSMA imaging, TGFβ-induced αSMA expression. The settings on record: TGFβ 5 ng/mL, 48 hours, read-out: IC50 of TGFβ-mediated αSMA induction. The class given is cell-based, human. As for the experimental part:
as §3

T1 sequence (P11688 45-999 limits assumed): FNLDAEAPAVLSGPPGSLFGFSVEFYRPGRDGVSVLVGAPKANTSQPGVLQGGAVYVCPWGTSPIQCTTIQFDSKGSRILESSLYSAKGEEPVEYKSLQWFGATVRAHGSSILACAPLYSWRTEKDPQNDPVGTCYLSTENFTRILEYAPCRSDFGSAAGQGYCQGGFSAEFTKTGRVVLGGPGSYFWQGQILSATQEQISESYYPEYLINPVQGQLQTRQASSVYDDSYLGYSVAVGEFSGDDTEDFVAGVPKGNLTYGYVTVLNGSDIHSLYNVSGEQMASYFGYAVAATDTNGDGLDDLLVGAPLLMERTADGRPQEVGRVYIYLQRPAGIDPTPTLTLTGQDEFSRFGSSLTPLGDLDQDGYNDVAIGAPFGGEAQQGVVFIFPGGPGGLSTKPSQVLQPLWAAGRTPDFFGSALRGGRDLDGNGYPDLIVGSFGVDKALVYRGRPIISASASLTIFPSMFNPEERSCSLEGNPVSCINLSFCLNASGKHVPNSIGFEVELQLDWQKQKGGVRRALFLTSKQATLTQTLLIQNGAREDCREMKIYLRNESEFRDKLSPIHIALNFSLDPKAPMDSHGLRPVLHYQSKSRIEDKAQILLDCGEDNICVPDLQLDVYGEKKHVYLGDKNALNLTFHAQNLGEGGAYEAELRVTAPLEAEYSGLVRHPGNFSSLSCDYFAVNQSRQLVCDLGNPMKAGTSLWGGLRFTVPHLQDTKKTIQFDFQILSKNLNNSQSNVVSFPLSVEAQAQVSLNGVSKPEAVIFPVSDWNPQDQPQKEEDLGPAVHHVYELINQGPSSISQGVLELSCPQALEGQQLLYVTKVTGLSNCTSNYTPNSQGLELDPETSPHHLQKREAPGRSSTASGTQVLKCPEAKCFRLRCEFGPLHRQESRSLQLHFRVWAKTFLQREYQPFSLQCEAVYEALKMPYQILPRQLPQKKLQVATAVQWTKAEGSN
T1 sequence (P09055 21-728 limits assumed): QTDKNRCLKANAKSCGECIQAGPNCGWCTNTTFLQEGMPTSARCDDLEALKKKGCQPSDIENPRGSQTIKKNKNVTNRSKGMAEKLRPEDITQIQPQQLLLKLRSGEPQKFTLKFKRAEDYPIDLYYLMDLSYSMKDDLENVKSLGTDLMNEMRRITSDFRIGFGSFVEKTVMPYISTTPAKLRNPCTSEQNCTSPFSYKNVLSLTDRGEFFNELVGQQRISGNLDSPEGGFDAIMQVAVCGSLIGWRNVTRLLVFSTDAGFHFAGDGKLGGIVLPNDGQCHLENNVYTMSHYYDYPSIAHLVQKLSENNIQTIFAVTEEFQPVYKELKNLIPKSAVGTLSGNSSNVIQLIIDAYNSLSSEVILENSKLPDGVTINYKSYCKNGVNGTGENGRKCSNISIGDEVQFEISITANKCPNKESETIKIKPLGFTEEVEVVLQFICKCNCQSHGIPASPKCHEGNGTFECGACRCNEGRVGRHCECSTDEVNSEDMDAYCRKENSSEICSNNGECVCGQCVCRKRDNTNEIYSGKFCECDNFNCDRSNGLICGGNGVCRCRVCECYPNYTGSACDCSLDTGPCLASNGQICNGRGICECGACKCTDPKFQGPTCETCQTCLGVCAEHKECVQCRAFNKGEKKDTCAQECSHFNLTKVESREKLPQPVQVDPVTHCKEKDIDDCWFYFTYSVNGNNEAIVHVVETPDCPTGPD

B1: Ab-31: integrin binder antibody, VH SEQ ID NO: 35, VL SEQ ID NO: 36 (antibody, V domains shown)
VH: EVQLQESGPGLVKPSETLSLTCAVSGYSISSGYYWGWIRQPPGKGLEWIGSIYHSGNTYYNPSLKSRVTISVDTSKNQFSLKLSSVTAADTAVYYCARVPRYSRGDAYYYYGMDVWGQGTTVTVSS
VL: DIQMTQSPSTLSASVGDRVTITCRASQSIGSWLAWYQQKPGKAPKLLIYKASSLESGVPSRFSGSGSGTEFTLTISSLQPDDFATYYCQQSGPYPWTFGGGTKVEIK
As a reminder, the IC50 is the point on the concentration scale where inhibition reaches its midpoint. On to B1, for which the IC50 with mα5β1 was greater than 250 nM; with mαvβ8, 66.3 nM; with mαvβ5, greater than 250 nM; in experiment [2], 33 ± 21 nM. In experiment [1], the “activity on TGFβ-induced αSMA in normal human lung fibroblasts” value is “ineffective”.

B2: Ab-32: integrin binder antibody, VH SEQ ID NO: 37, VL SEQ ID NO: 38 (antibody, V domains shown)
VH: EVQLQESGPGLVKPSETLSLTCAVSGYSISSGYYWGWIRQPPGKGLEWIGSIYHSGNTYYNPSLKSRVTISVDTSKNQFSLKLSSVTAADTAVYYCARVPRYSRGDAYYYYGMDVWGQGTTVTVSS
VL: EIVLTQSPGTLSLSPGERATLSCRASQSVRSSYLAWYQQKPGQAPRLLIYGASSRATGIPDRFSGSGSGTDFTLTISRLEPEDFAVYYCQQAGLVFTFGGGTKVEIK
Turning to B2, the values for the IC50 with mα5β1, in the experiment with mαvβ8 and in the experiment with mαvβ5 were greater than 250 nM, 71.9 nM and greater than 250 nM, respectively.

B3: Ab-30: integrin binder antibody, VH SEQ ID NO: 33, VL SEQ ID NO: 34 (antibody, V domains shown)
VH: EVQLQESGPGLVKPSETLSLTCAVSGYSISSGYYWGWIRQPPGKGLEWIGSIYHSGNTYYNPSLKSRVTISVDTSKNQFSLKLSSVTAADTAVYYCARVPRYSRGDAYYYYGMDVWGQGTTVTVSS
VL: DIQMTQSPSTLSASVGDRVTITCRASQSISSWLAWYQQKPGKAPKLLIYKASSLESGVPSRFSGSGSGTEFTLTISSLQPDDFATYYCQQVKIYPPYTFGGGTKVEIK
Consider B3, for which the IC50 with mα5β1 was greater than 250 nM; with mαvβ8 it was 25.1 nM; in the experiment with mαvβ5, greater than 250 nM.

B4: Ab-33: integrin binder antibody, VH SEQ ID NO: 39, VL SEQ ID NO: 40 (antibody, V domains shown)
VH: EVQLVQSGAEVKKPGSSVKVSCKASGGTFSNYAISWVRQAPGQGLEWMGGIIPIFGTANYAQKFQGRVTITADESTSTAYMELSSLRSEDTAVYYCARAPRSARGDMYYYYYGMDVWGQGTTVTVSS
VL: DIQMTQSPSTLSASVGDRVTITCRASQSIGSWLAWYQQKPGKAPKLLIYKASSLESGVPSRFSGSGSGTEFTLTISSLQPDDFATYYCQQYGRYPWTFGGGTKVEIK
Take B4: the IC50 in the experiment with mα5β1 was greater than 250 nM; with mαvβ8, 24.7 nM.

B5: Ab-29: integrin binder antibody, VH SEQ ID NO: 31, VL SEQ ID NO: 32 (antibody, V domains shown)
VH: ELQLQESGPGLVKPSETLSLTCTVSGGSISSNSYYWGWIRQPPGKGLEWIGSIYYSGSTYYNPSLKSRVTISVDTSKNQFSLKLSSVTAADTAVYYCARVRRVAGRGDSYYYYYGMDVWGQGTTVTVSS
VL: DIQMTQSPSSVSASVGDRVTITCRASQGISRWLAWYQQKPGKAPKLLIYAASSLQSGVPSRFSGSGSGTDFTLTISSLQPEDFATYYCQQAISHPWTFGGGTKVEIK
For B5, the IC50 with mα5β1 was greater than 250 nM; with mαvβ8, 102 nM.
